In IntAct's records for PubMed 26886794:

Assays:
ASH2L, Q9UBL3-3 [1] = target: ASH2L, Q9UBL3-3
ASH2L, Q9UBL3-3 [2] = target: ASH2L, Q9UBL3-3; remark: listed apart in the source

Chain of ASH2L, Q9UBL3-3 (Q9UBL3 95-628): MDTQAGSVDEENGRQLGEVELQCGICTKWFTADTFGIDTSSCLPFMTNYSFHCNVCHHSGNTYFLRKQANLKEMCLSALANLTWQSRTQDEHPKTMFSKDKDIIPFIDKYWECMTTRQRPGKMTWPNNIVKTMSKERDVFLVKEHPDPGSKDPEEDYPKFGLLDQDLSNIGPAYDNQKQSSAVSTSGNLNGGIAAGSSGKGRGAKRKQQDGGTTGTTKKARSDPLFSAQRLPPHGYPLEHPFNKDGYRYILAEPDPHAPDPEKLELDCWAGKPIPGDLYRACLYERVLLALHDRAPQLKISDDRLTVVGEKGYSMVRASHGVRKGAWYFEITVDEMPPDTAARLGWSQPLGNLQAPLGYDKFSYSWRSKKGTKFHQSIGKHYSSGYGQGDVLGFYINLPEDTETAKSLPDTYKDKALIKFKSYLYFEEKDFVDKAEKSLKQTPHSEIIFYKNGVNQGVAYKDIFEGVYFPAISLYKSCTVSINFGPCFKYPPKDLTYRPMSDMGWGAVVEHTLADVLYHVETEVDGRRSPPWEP

effect of a mutation on the interaction (ASH2L, Q9UBL3-3 [1]) | effect of a mutation on the interaction (ASH2L, Q9UBL3-3 [2]) | Substance
disrupting interaction strength |  | Histone-lysine N-methyltransferase 2C (Homo sapiens), Q8NEZ4 R4806A
 | disrupting interaction strength | Histone-lysine N-methyltransferase 2B (Homo sapiens), Q9UMN6 R2610A
